Numbering of substitutions follows the chain as printed. In names and notes the source's numbering stands. Each block holds one binder with its values, some of them ahead of it.
Molecular target: T1, TNFR1 (Homo sapiens, UniProt P19438)
T1 chain: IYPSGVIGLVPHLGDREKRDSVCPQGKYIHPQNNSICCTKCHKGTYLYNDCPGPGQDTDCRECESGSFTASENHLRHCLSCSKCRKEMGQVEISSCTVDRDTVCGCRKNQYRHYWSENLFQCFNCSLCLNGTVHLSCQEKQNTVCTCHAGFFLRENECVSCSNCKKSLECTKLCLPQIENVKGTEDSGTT
Assay: yeast display SC50

apparent Kd (screen): 0.79 nM
B1: V60C (designed binder)
chain: MTLQELLREEALRRAEAEAFRYALELLAEKFPEQKEYLLDLAEEIESQIRSLSGVDVEDCRKFLDKEWAWVKELLAEHPAELAEVEAARAARLAELRAEVEAKVAA

apparent Kd (screen): 0.446 nM
B3: E77L (designed binder)
chain: B1 chain with C60V, E77L

apparent Kd (screen): 0.49 nM
B4: L96T (designed binder)
chain: B1 chain with C60V, L96T

apparent Kd (screen): 0.49 nM
B5: A88L (designed binder)
chain: B1 chain with C60V, A88L

apparent Kd (screen): 0.539 nM
B8: L93M (designed binder)
chain: B1 chain with C60V, L93M

apparent Kd (screen): 0.49 nM
B10: A76S (designed binder)
chain: B1 chain with C60V, A76S

apparent Kd (screen): 0.539 nM
B11: A102C (designed binder)
chain: B1 chain with C60V, A102C

apparent Kd (screen): 0.593 nM
B13: K72V (designed binder)
chain: B1 chain with C60V, K72V

apparent Kd (screen): 1.05 nM
B14: E101T (designed binder)
chain: B1 chain with C60V, E101T

apparent Kd (screen): 0.49 nM
B20: A83W (designed binder)
chain: B1 chain with C60V, A83W

apparent Kd (screen): 0.869 nM
B21: A91M (designed binder)
chain: B1 chain with C60V, A91M

apparent Kd (screen): 0.49 nM
B23: L96H (designed binder)
chain: B1 chain with C60V, L96H

apparent Kd (screen): 0.446 nM
B25: E95M (designed binder)
chain: B1 chain with C60V, E95M

apparent Kd (screen): 0.593 nM
B26: K72Y (designed binder)
chain: B1 chain with C60V, K72Y

apparent Kd (screen): 0.593 nM
B31: H78D (designed binder)
chain: B1 chain with C60V, H78D

apparent Kd (screen): 0.446 nM
B33: A83L (designed binder)
chain: B1 chain with C60V, A83L

apparent Kd (screen): 0.49 nM
B34: A76L (designed binder)
chain: B1 chain with C60V, A76L

apparent Kd (screen): 0.446 nM
B36: A102R (designed binder)
chain: B1 chain with C60V, A102R

apparent Kd (screen): 0.539 nM
B38: E101V (designed binder)
chain: B1 chain with C60V, E101V

apparent Kd (screen): 0.49 nM
B40: A80D (designed binder)
chain: B1 chain with C60V, A80D

apparent Kd (screen): 0.869 nM
B41: V104W (designed binder)
chain: B1 chain with C60V, V104W

apparent Kd (screen): 0.49 nM
B43: E84T (designed binder)
chain: B1 chain with C60V, E84T

Further lines, the binder ahead of its results:

B2: R13V (designed binder)
chain: B1 chain with R13V, C60V
apparent Kd (screen): 0.335 nM

B6: D56R (designed binder)
chain: B1 chain with D56R, C60V
apparent Kd (screen): 2.25 nM

B7: F31T (designed binder)
chain: B1 chain with F31T, C60V
apparent Kd (screen): 0.593 nM

B9: E18M (designed binder)
chain: B1 chain with E18M, C60V
apparent Kd (screen): 0.49 nM

B12: Q34G (designed binder)
chain: B1 chain with Q34G, C60V
apparent Kd (screen): 0.593 nM

B15: A11K (designed binder)
chain: B1 chain with A11K, C60V
apparent Kd (screen): 0.539 nM

B16: R50W (designed binder)
chain: B1 chain with R50W, C60V
apparent Kd (screen): 2.73 nM

B17: E29M (designed binder)
chain: B1 chain with E29M, C60V
apparent Kd (screen): 0.539 nM

B18: I45Y (designed binder)
chain: B1 chain with I45Y, C60V
apparent Kd (screen): 1.86 nM

B19: L3C (designed binder)
chain: B1 chain with L3C, C60V
apparent Kd (screen): 12.5 nM

B22: M1V (designed binder)
chain: B1 chain with M1V, C60V
apparent Kd (screen): 0.539 nM

B24: E46W (designed binder)
chain: B1 chain with E46W, C60V
apparent Kd (screen): 0.368 nM

B27: F31C (designed binder)
chain: B1 chain with F31C, C60V
apparent Kd (screen): 0.653 nM

B28: V57M (designed binder)
chain: B1 chain with V57M, C60V
apparent Kd (screen): 2.48 nM

B29: T2R (designed binder)
chain: B1 chain with T2R, C60V
apparent Kd (screen): 0.956 nM

B30: V57G (designed binder)
chain: B1 chain with V57G, C60V
apparent Kd (screen): 1.86 nM

B32: L6R (designed binder)
chain: B1 chain with L6R, C60V
apparent Kd (screen): 12.5 nM

B35: E33A (designed binder)
chain: B1 chain with E33A, C60V
apparent Kd (screen): 0.208 nM

B37: Y22W (designed binder)
chain: B1 chain with Y22W, C60V
apparent Kd (screen): 0.49 nM

B39: R13T (designed binder)
chain: B1 chain with R13T, C60V
apparent Kd (screen): 0.335 nM

B42: V55W (designed binder)
chain: B1 chain with V55W, C60V
apparent Kd (screen): 1.16 nM

Reference: PMC12416549 (2024)
